Test results as given in US8383117.
Blank lines part the entries; values can stand above or below the binder they belong to. Where no end group is shown, it is not given here. The star is where a group is joined. Biotin = O=C1N[C@H]2[C@H](CS[C@H]2CCCCC(=O)*)N1

Assays:
[1] = target: Peptide 2 (Biotin-…) (human); experiment: ELISA on peptide-coated plates, 75 µg/mL VB1-008; reference Peptide 3
[2] = target: VB1-008 monoclonal antibody; experiment: peptide in molar excess (20× to 200×) against 0.5 µM VB1-008, flow cytometry on MDA-MB-435S cells

percent of the binding observed with Peptide 3 [1]: 50 to 60%
B1: VB1-008 monoclonal antibody (antibody, V domains shown)
VH: QVQLQELGPRLVRPSQTLILTCTVSGGSVSGDEYYWSWLRQTPGKGLEWIGYMSYRGSSYYSPSLQSRVTIAVDRSKNEFSLKLTSVTAADAAVYFCARKYCGGDCRSGFDIWGRGTMVTVAS
VL: YELTQPPSVSVSPGQKAFITCSGDNLGNKYVCWYQQKPGQSPVLVIYEDTKRPSGIPERFSASNSGNTATLTISGTQPIDEADYYCQAWDSRTEIFGTGTKVTVLS

competition efficiency [2]: 96%
B2: Peptide 3 (Biotin-…) (peptide)
peptide: Biotin-ATNMDSSHSIT

competition efficiency [2]: 60%
B3: Peptide 2 (Biotin-…) (peptide)
peptide: Biotin-RIPATNMDSSH
